These results are taken from the nanobody polyreactivity screen of Harvey et al. (2022).

The nature of the series: yeast display, Sf9 membrane polyspecificity reagent, FACS + sequencing; frameworks hold sequencing errors. Put shortly:
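Using colony PCR, genes from sorted yeast display clones were amplified, then sequenced on MiSeq at 2 × 250 and filtered by CDR length. The clones had been stained with 10% biotinylated, detergent-solubilized Sf9 membrane reagent for 1 hour at 4 °C and sorted by FACS into low and high (top ~1%) gates on anti-HA and streptavidin fluorescence. Polyreactivity labels come from the gate of origin.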
Take “QVQLVESGGGLVQAGGSLRLSCAASGIIFWVNAMGWYRQAPGKERELVAAIRSDGSTKYADSVKGRFTISRDNAKNTVYLQMNSLKPEDTALYYCAKRDYSYPWFRDYYYWGQGTQVTVSS”: the “polyreactivity (PSR sort gate)” value was “low polyreactivity”. Consider “QVQLVESGGGLVQAGGSLRLSCAASGIIFWYNAMGWYRQAPGKERELVAAISWSGGRTYYADSVKGRFTISRDNAKNTVYLQMNSLKPEDTAVYYCAAKVPRSSRSYGYWGQGTQVTVSS”, for which the “polyreactivity (PSR sort gate)” value is reported as “high polyreactivity”.

As for “QVQLVESGGGLVQAGGSLRLSCAASGIIFWYNAMGWYRQAPWKERELVASISTGGRTYYADSVKGRFTISRDNAKNTVYLQMNSLKPEDTAVYYCAAASRVGFLYYYWGQGTQVTVSS”, the “polyreactivity (PSR sort gate)” value is “low polyreactivity”. For the sequence “QVQLVESGGGLVQAGGSLRLSCAASGIIFWYYAMGWYRQAPGKERELVAAISQSGGRTYYADSVKGRFTISRDNAKNTVYLQMNSLKPEDTAVYYCAAEPYTGYGYWGQGTQVTVSS”, the “polyreactivity (PSR sort gate)” value is “high polyreactivity”. Turning to “QVQLVESGGGLVQAGGSLRLSCAASGIIFWYYAMGWYRQAPGKERELVASISGTGGTTYYADSVKGRFTISRDNAKNTVYLQMNSLKPEDTAVYYCAALSGQHDYDYWGQVTQVTVSS”, the “polyreactivity (PSR sort gate)” value was “low polyreactivity”. Turning to “QVQLVESGGGLVQAGGSLRLSCAASGIIFYDNAMGWYRQAPGKERELVAAISWGGGDTYYADSVKGRFTISRDNAKNTVYLQMNSLKPEDTAVYYCAAGNLPDYDYWGQGTQVTVSS”, the “polyreactivity (PSR sort gate)” value is recorded as “low polyreactivity”.

On to “QVQLVESGGGLVQAGGSLRLSCAASGIIFYDYAMGWYREAPGKERVLVGAISRSGGSTYYADSVKGRFTISRDNAKYTVYLQMNCLKPEDTAVYYCNAKYPFRKKYYYWGQGTQVTVAS”, for which the “polyreactivity (PSR sort gate)” value is reported as “high polyreactivity”. As for “QVQLVESGGGLVQAGGSLRLSCAASGIIFYDYAMGWYRQAPGKERELVAAISGSGVGTYYADSVKGRFTISRDNAKNTVYLQMNSLKPEDTAVYYCATRYQWGGPYYRYDYWGQGTQVTVSS”, the “polyreactivity (PSR sort gate)” value is “high polyreactivity”. To “QVQLVESGGGLVQAGGSLRLSCAASGIIFYDYAMGWYRQAPGKERELVAAITSNGDNTYYADSVKGRFTISRDNAKNTVYLQMNSLKPEDTAVYYCAVDGSFAADFDNYLEEYGYWGQGTLVTVSS” belongs “low polyreactivity”; to “QVQLVESGGGLVQAGGSLRLSCAASGIIFYDYAMGWYRQAPGKERELVAAITSNGDNTYYADSVKGRFTISRDNAKNTVYLQMNSLKPEDTAVYYCAVDGSFAADFDNYLEEYGYWGQGTQVSVSS”, “low polyreactivity”; to “QVQLVESGGGLVQAGGSLRLSCAASGIIFYDYAMGWYRQAPGKERELVASISWSSGSTYYADSVKGRFTISRDNAKNTVYLQMNSLKPEDTAVYYCAADGYPLQLYNYWGQGTQVTVSS”, “low polyreactivity”. In the case of “QVQLVESGGGLVQAGGSLRLSCAASGIIFYEYVMGWYRQAPGKERELVATISSIGGSTYYADSVKGRFTISRDNAKNTVYLQMNSLKPEDTAVYYCAADPDPVVSRGGNWYGDDYWGQGTQVTVSS”, the “polyreactivity (PSR sort gate)” value is reported as “high polyreactivity”.

Consider “QVQLVESGGGLVQAGGSLRLSCAASGIIFYGNVMGWYRQAPGKERELVAAITSTGSTSYADSVKGRFTMSRDNGKNTVYLQMNSLKPEDTAVYYCAADNAVWEYDYWGQGTQVTVSS”, for which the “polyreactivity (PSR sort gate)” value is recorded as “low polyreactivity”.

For the sequence “QVQLVESGGGLVQAGGSLRLSCAASGIIFYGYAMGWYRQAPGKERELVAGISSGGSTYYADSVKGRFTISRDNAKNTVYLQMNSLKPVDTAVSYCNADGGYSYESTDHYGYDYWGQGTQVTVSS”, the “polyreactivity (PSR sort gate)” value was “low polyreactivity”. To “QVQLVESGGGLVQAGGSLRLSCAASGIIFYGYVMGWYRQAPGKERELVATSTSSGGSTYYADSVKGRFTISRDNAKNTGYLQMNSLKPEDTAVYYCAADYDYGAWVRHDYWGQGTQVTVSS” belongs “low polyreactivity”. As to “QVQLVESGGGLVQAGGSLRLSCAASGIIFYKNAMGWYRQAPGKDRELVAAISGSGGRTYYADSVTGRFTISRDNGKNTVYFQMNSLKPEDTAVYYCAARQPYRHGYESWGQGSQVTVSS”, the “polyreactivity (PSR sort gate)” value is “high polyreactivity”. The value for “QVQLVESGGGLVQAGGSLRLSCAASGIIFYLYAMGWYRQAPGKERELVAAISRRGGSTYYADSVKGRFTISRDKAKNTVYLQMNSLKPEDTAVYYCAATIGTFGYGYWGQGTQVTVSS” was “high polyreactivity”; that for “QVQLVESGGGLVQAGGSLRLSCAASGIIFYPNAMGWYRQAPGKERELVAAITSDGSTYYADSVKGRFTISRDNAMNTVYLQMNSLKPDDTAVYYCAAWDDYGYDYWGQGTQVTVSS” was “low polyreactivity”; that for “QVQLVESGGGLVQAGGSLRLSCAASGIIFYRNAMGWYRQAPGKERELVAAISSSGGRTYYADSVKGRFTISRDNAKNTVYLQMNSLKPEDTAVYYCAADYQWFWVWYGYWGQGTQVTVSS” was “high polyreactivity”. Regarding “QVQLVESGGGLVQAGGSLRLSCAASGIIFYRNTMGWYRQAPGKERELVASISRGGSTYYADSVKGRFTISRDNAKNTVYLPMNTLKPEDTAVYYCSTSGPQDYSRNFDYWGQGTQVTVSS”, the “polyreactivity (PSR sort gate)” value is “low polyreactivity”. On to “QVQLVESGGGLVQAGGSLRLSCAASGIIFYRYAMGWYRQAPGKERELVAAISSSGTNTYYADSVKGRFTISRDNAKNTVYLQMNSLKPEDTAVYYCNSDTWADRSTYDYWGQGTQVTVSS”, for which the “polyreactivity (PSR sort gate)” value is listed as “low polyreactivity”. For the sequence “QVQLVESGGGLVQAGGSLRLSCAASGIIFYRYAMGWYRQAPGKERELVARITSSTGSTYYADSVKGRFTISRDNAKNTVYLQMNSLKPEDTAVYYCNARRQRNKSYNYWGQGTQVTVSS”, the “polyreactivity (PSR sort gate)” value is “high polyreactivity”. As to “QVQLVESGGGLVQAGGSLRLSCAASGIIFYVNDMGWYREAPGKVRELVADISGGTSTNYADSVKGRFTISRDNAKNTVYLQMNSLKPEDTAVYYCATAFIVPFPGSDYWGQGTQVTVSS”, the “polyreactivity (PSR sort gate)” value is on record as “low polyreactivity”. As to “QVQLVESGGGLVQAGGSLRLSCAASGIIFYWYAMGWYRQAPGKERELVAAITRVGSTNYADSVKGRFTISRDNAKNTVYLQMNSLKPEDTAVYYCAADLWQRHYLVGFGIRYDYWGQGTQVTVSS”, the “polyreactivity (PSR sort gate)” value is listed as “low polyreactivity”. With “QVQLVESGGGLVQAGGSLRLSCAASGIIFYYNAMGWYRQAPGKERELVAAISSSGGSTSYADSVKGRFTISRDNAKNTVFLQMNSLKPEDTAVYYCAADSYPAYLGFVGFDYWGQGTQVTVSS”, the “polyreactivity (PSR sort gate)” value is reported as “low polyreactivity”. To “QVQLVESGGGLVQAGGSLRLSCAASGIIFYYYAMGWYRQAPGKERELVAAISTSGGRTYYADSVKGRFTISRDNAKNTVYLQMNSLKPEDTAVYYCAKDFWYVTGGWSSGMDYWGQGTQVTVSS” belongs “low polyreactivity”. On to “QVQLVESGGGLVQAGGSLRLSCAASGIIFYYYAMGWYRQAPGKERELVAAISWSGGSTYYADSVKGRFTISRDNAKNTVYLQMNSLKPEDTAVYYCAASSTSGYDWGQGTQVTVSS”, for which the “polyreactivity (PSR sort gate)” value is given as “low polyreactivity”. For “QVQLVESGGGLVQAGGSLRLSCAASGIIFYYYDMGWYRQAPGKERELVAAISWGAGDTYYADSVKGRFTISRDNAKNTVYLQMNSLKPEDTAVYYCAAEFSRSDYQEYDYWGQGTQVTVSS”, the “polyreactivity (PSR sort gate)” value is reported as “low polyreactivity”. “QVQLVESGGGLVQAGGSLRLSCAASGIIIAWYAMGWYRQAPGKERELVAAITSGGGSTYYADSVKGRFTISRDNAKNTVYLQMNSLKPEDTAVYYCAADYQTIGWGYDYWGQGTQVTVSS”: the “polyreactivity (PSR sort gate)” value was “low polyreactivity”. Take “QVQLVESGGGLVQAGGSLRLSCAASGIIIDYYTMGWYRQAPGKERELVAAINKSGGSTYADSVKGRFTISRDNAKNTVYLQMNSLKPEDNAVYYCAAEVDYSYWPEYARKYYYWGQGTQVTVSS”: the “polyreactivity (PSR sort gate)” value was “low polyreactivity”. For the sequence “QVQLVESGGGLVQAGGSLRLSCAASGIIIGLYGRGWYRQAPGKERELVAAISSSGGSTYYADSVKGRFTISRDNAKNTVYLQINSLKPEDTAVYYCARVVRSLWGGLYLYDYWGQGTQVTVSS”, the “polyreactivity (PSR sort gate)” value is “low polyreactivity”. For the sequence “QVQLVESGGGLVQAGGSLRLSCAASGIIIHSYTMGWYRPAPGKERELVAAISTSGSTYYADSVKGRFTISRDNAKNTVYLQMHILKPEDTAVYYCNADYAQSGTNSQVGKYGYWGQGTQVTVSS”, the “polyreactivity (PSR sort gate)” value was “high polyreactivity”.

Consider “QVQLVESGGGLVQAGGSLRLSCAASGIIIRKYAMGWYRQAPGKERELVAAITTRGSRTYYADSVKGRFTISRDNAKNTVYLQMNSLKPEDTAVYYCAADRYTVRMDYWGQGTQVTVSS”, for which the “polyreactivity (PSR sort gate)” value was “high polyreactivity”. As to “QVQLVESGGGLVQAGGSLRLSCAASGIIIRRYAMGWSRQAPGKERELVAAISWSGGSTYYADSVKGRFTISRDNAKNTVDLQMNSLKPEDTAVYYCAAAAYTRDEYDYWGQGTQVTVSS”, the “polyreactivity (PSR sort gate)” value was “high polyreactivity”. For the sequence “QVQLVESGGGLVQAGGSLRLSCAASGIIIRSYAMGWDRQAPGKERELVAAITRSGGSTYADSVKGRFTISRDNAKNTVYLQKNSLKPEDTAVYYCAADRYSGWVYRRDDWGQGTQVPVSS”, the “polyreactivity (PSR sort gate)” value was “low polyreactivity”. To “QVQLVESGGGLVQAGGSLRLSCAASGIILGRYAMGWYRQAPGKERELVAAITASGGRTYYADSVKWRFTISRDNAKNTVYLQMNSLKPEDTAVYYCNTVYWGYKSHYDYWGQGTQVTVSS” belongs “high polyreactivity”. Regarding “QVQLVESGGGLVQAGGSLRLSCAASGIILPYYAMGWYRQAPGKERELVASISQSGSSTYYADSVKGRFTISRDNAKNTVYLQMNSLKPEDTAVYYCNAKPGSWYIRYDYWGQGTQVTVSS”, the “polyreactivity (PSR sort gate)” value is listed as “low polyreactivity”. In the case of “QVQLVESGGGLVQAGGSLRLSCAASGIILWYNVMGWYRQAPGKERELVASITGDGDDTYYADSVKGRFTMSRDNAKNTVYLQMNSLKPEDTAVYYCAKENYGILYSTLYDYWGQGTQVTVSS”, the “polyreactivity (PSR sort gate)” value is on record as “low polyreactivity”. As to “QVQLVESGGGLVQAGGSLRLSCAASGIILYGYARGWYRPAPGKESELVAAISRRGGITYYADTVKARYTISRDNAKNSVYLQMNSLKPEDTAVYYCAADINRRPSYHPDYEYWGQGTQVTVSS”, the “polyreactivity (PSR sort gate)” value is listed as “high polyreactivity”. Consider “QVQLVESGGGLVQAGGSLRLSCAASGIILYRNGMGWYRQAPGKERELVAASSWSTGSTYYADSVKGRFTISRDNAKNTVYLQMNSLKPEDTAVYYCATDYVGYSFGMYYWGQGTQVTVSS”, for which the “polyreactivity (PSR sort gate)” value is “low polyreactivity”.

In the case of “QVQLVESGGGLVQAGGSLRLSCAASGIILYVNAMGCYRQAPGKEREFVAAISWGGGSTYYADSVKGRFTISRDNAKNTVYLQMNSLKREDTAVYYCAAEFWSGYPTYTYDYWGQGTQVTVSS”, the “polyreactivity (PSR sort gate)” value is “low polyreactivity”.
